Test: soluble on expression in E. coli; label from the status in PepcDB or PDB records

## MNLAKRILQGEQLTKETVLKIYEDTNIDTLDLLNEAYILRKHYFGKKVKLNMILNAKSGICPENCGYCGQSRDIKQKQRYALIPEEQIIDGAKVAHDNHIGTYCIVMSGRGPSDKEVDHISNTVRTIKSQHPQLKICACLGLTNDEQAKKLKSAGVDRYNHNINTSENYHDNVVTTHSYKDRTDTIELMKANNISPCSGVICGMGESNQDIVDMAFALKEMDADSIPINFLHPIKGTKFGSMDDLTPMKCLRIVALFRLINPTKEIRIAGGREVNLRSLQPLALKAANSIFVGDYLITGGQPNQLDYDMINDLGFEIDYDTCENKENKNDVSRAN
  soluble on expression in E. coli: not soluble

## MYKILEIADVVKVPPEEFGKDLKETVKKILMEKYEGRLDKDVGFVLSIVDVKDIGEGKVVHGDGSAYHPVVFETLVYIPEMYELIEGEVVDVVEFGSFVRLGPLDGLIHVSQIMDDYVSYDPKREAIIGKETGKVLEIGDYVRARIVAISLKAERKRGSKIALTMRQPYLGKLEWIEEEKAKKQNQE
  soluble on expression in E. coli: soluble

## MIEFSDEDLQKPVRIVIEKIRPYLLKDGGNIEVLGVKSMKIYVALEGACKTCSSSKITLKNVIERQLKMDIHPNLEVVCLENAKEFDKL
  soluble on expression in E. coli: not soluble

## MSLSGETELTFWTFSGLHEQFYVEMVKEWNKKYPDRKIKLNTVVYPYGQMHDNLSISLIAGEGVPDIADVELARFSNFLKGSDIPLADLTPLIEKDRDKFVEARLTLYSKNGKLYGLDTHVGTTVMFYNMDVMKKAGVNPDDIKTWDDYHKAGQKVRKVTGKPMGTVETNDSATFLSMISQQNSGYFDKNGKLILNNDTNVKTLQYLKDMINDKTMIPAPGGGHHSEEYYGFMNQGGAASVLMPIWYMGRFIDYMPDLKGKIAIRPLPAWKEGGDRSAGLGGTATVVPKQSKHVELAKEFLAFAKGSEEGNKKLWSVLGFDPLRWDVWSSKELKEKNKYTDYFQNGTGIFSVLLDIKDEINPIYLHEDFAKASDLVNRSVLFDALKSQQKTPKQALDRAAGELKQKEGHHHHHH
  soluble on expression in E. coli: soluble

## MAQVAIITASDSGIGKECALLLAQQGFDIGITWHSDEEGAKDTAREVVSHGVRAEIVQLDLGNLPEGALALEKLIQRLGRIDVLVNNAGAMTKAPFLDMAFDEWRKIFTVDVDGAFLCSQIAARQMVKQGQGGRIINITSVHEHTPLPDASAYTAAKHALGGLTKAMALELVRHKILVNAVAPGAIATPMNGMDDSDVKPDAEPSIPLRRFGATHEIASLVVWLCSEGANYTTGQSLIVDGGFMLANPQFNPE
  soluble on expression in E. coli: soluble

## GSMKKWSDTEVFEMLKRMYARVYGLVQGVGFRKFVQIHAIRLGIKGYAKNLPDGSVEVVAEGYEEALSKLLERIKQGPPAAEVEKVDYSFSEYKGEFEDFETY
  soluble on expression in E. coli: soluble

## MSLLLPANEQRPVVDIFVEGRRISAREGETIAAALLNAGIVPFRRTPVSGQPRAPLCLMGVCFECLVEVDGAQNVQSCMVRVNAGMQVGLPTGARRAGDGEGHHHHHH
  soluble on expression in E. coli: not soluble

## SEENEEEEELRPTALYTVGGSDEFTFVSPDGLSGQYTGPDHDGVVLQTENPAPTNCLAYYFEVHIMNAGEKGEIAIGFSKEHIYSEGYTVRSCAYIGNSGLICSQNGDGDRTVAKASDTYTTGDLVGCGIDSVSQEFFFTKNGTIVGTIPRQFRRPVYPTIVLHSQNEAVTVNFGGQIAFSFDFEVRSYFSFLA
  soluble on expression in E. coli: soluble

## MFSQWVFLSVLALAVPSFAWAEDAVSDLAREQSKAEQGDKRGDELFAEFTRLRQAAETGEPQALFDFGAYFYQQQNYASAREWWGKAAAAGMVRAQIQLAMLYRDGDGGPQDKTEAARWFRKAAEQGDAAAQNEMGVLYWRGEGVDQDRVKAGTWFERAAASGSEDAETNLGWFYLDDSQGVYSATSDEEAALLDRYAGSREKAFQWFCKAATQGDARAQFKVGEAYWNGSGAGMNKLQARLWLEKAAQQQDADAIAWLESAANAAWYTRLENWIHAALDGELSGVADCSGAADRRHSGRGMEGAPSDPEAVEASAEDAQQAVEAASQ
  soluble on expression in E. coli: not soluble

## MLFPTTIAGSLPKPEWLAEPNKLWAPWKSTGAELLRAKRDATILALKLQEDSGIDIVTEGEQARQHFVHGFLEAVEGIDFAHKVEMGIRNDRYKAMVPQVVAPLRLKGRVHGFEGQIARAHSTHKIKFTLPGPMTIIDTIADRHYGDRVKMAFAFAELLNEEAKALQADGIDMIQFDEPAFNVYMSEAADWGVKALERAAQDLTCATAVHICYGYGIKANTDWKETLGAEWRQYEDIFPAIDASSIQQVAVECRNSKVPLELLSLLKGKIVQAGVIDVASDEVETAEDVCATIEAVMQHVPKSNIIATTNCGMAPMRREIAEAKLAALGAGAELARERFKLEHHHHHH
  soluble on expression in E. coli: soluble

## MADSGTAGGAALAAPAPGPGSGGPGPRVYFQSPPGAAGEGPGGADDEGPVRRQGKVTVKYDRKELRKRLNLEEWILEQLTRLYDCQEEEIPELEIDVDELLDMESDDARAARVKELLVDCYKPTEAFISGLLDKIRGMQKLSTPQKK
  soluble on expression in E. coli: soluble

## MGSDKIHHHHHHMTQSFIVDEAFWQLFPEVEIAFLTAQDIDNHAKEQVPTDLLTTANHVAATKWVPNDPISQNTVVQDWRQAFQQFKTKKGARCAVENLLKRAKNGKGVGTINPVVDVYNSVSLEWAFPVAAEDMDQIKGDIHLTVAQGGERFRPIGEDDVETALPGEVIYRDAYDVISRCWAWRDSARVEATEATQNLLFYMENVNPQRHADHVAATAALRTRLHDYLGISTTLHVVTHDQPSVAFKD
  soluble on expression in E. coli: not soluble

## MGSDKIHHHHHHMAFRVILIENEVTIKVKLNNLIITKCGEDIWIPLDDISMIVLDNLASNLSTRLMCQLAEQGIGLMLYNQQHLPTGFYSAYDNHSRASKVIGFQIDKEQDYYGKLWQQIVKIKIENQAKAYQIMTRDSDGPEKIIEFSKNILIGDKSNREAHAAKVYFNLLMGTSFSRGNEDILLNSGLDYGYAVIRGYIARACVGYGLNTQIGIHHKSEYNRFNLVDDLMEPLRPIVDIVAYNSMKNDKYFTPEHRRKLVSILNMKIMYREKKMYMCNMIENYIEQYASLIMKRTDNIVFPDVYNLIGEEYG
  soluble on expression in E. coli: not soluble

## MKMADAKQKRNEQLKRWIGSETDLEPPVVKRKKTKVKFDDGAVFLAACSSGDTEEVLRLLERGADINYANVDGLTALHQACIDDNVDMVKFLVENGANINQPDNEGWIPLHAAASCGYLDIAEYLISQGAHVGAVNSEGDTPLDIAEEEAMEELLQNEVNRQGVDIEAARKEEERIMLRDARQWLNSGHINDVRHAKSGGTALHVAAAKGYTEVLKLLIQARYDVNIKDYDGWTPLHAAAHWGKEEACRILVENLCDMEAVNKVGQTAFDVADEDILGYLEELQKKQNLLHSEKREKKS
  soluble on expression in E. coli: soluble

## MSLVENLSLEPQPKRRKIDPEVKESPSRNCSHWFVRNKVCASCNTIVDNYQGRSFDYLYTGIQMSNEALGFTKRLISQTSWLEDKKLHLVLDLDHTLVHTIKVSQLSESEKYITEEVESRKDLRRFNTGFPEESLIKLRSFVHQFLKECNEMFSLYVYTKGGYDYAQLVLEMIDPDKIYFGNRVITRRESPGFKTLDLVLADERGIVVVDDKSSVWPHDKKNLLQIARYKYFGDQSCLLSECKKKIDESDEKGPLNTALRFLMDVHEEFFCDWSRKDLDSVDVRPLLKEISLRWKRKADGVV
  soluble on expression in E. coli: soluble

## MSSDHVFKYVIIGDRGVGKSNLLLRFIGKPFDSIHPSTLGIEFGFRNLEIDRKKVKLHVWDTCGQERFRSLVGSYYRHAIGALLVYDITSRESFYHLEHWLTDLQRLGDPDIVIVLIGNKSDLEADREVRKEEGEAFAREFGLIFMEISAKTNEYVEEAFVNSAHEIYRKLNFGIIKEICVKKKKKKMNIIIRSISGKEKACC
  soluble on expression in E. coli: not soluble

## MTAMPRIAFLASPAEPAVAARARLVQRYGDHALHDADIVCALGGDGFMLQTLHRHGAADKPVFGMKLGSVGFLMNQYRDDEDDLLARLQRAEPAHLRPLEMLVQTESGTSAGSLAYNEVSLLRQTRQAAHLSVDLNGQTRIAELIGDGVMVATPAGSTAYNYSAHGPILPLGSHTLALTPIAPYRPRRWRGAILKADTEVRFRVLDPYKRPVSVTADSHEIRDVVEVTIRESTERRVTLLFDPEHNLEERIFSEQFAVLEHHHHHH
  soluble on expression in E. coli: not soluble

## MGFVDRGGGREAKGASLRRSKNNPGASIAKNKSAKKDYTTPATRATPTPPPACLPVLKALMAAASAGATAMEATAASTVTDFEKALAAVRDAAQTGGSPYIDAAVALLSRKLEEDREGIFRRAAEEGKLAAVVCWCGEAERQSLLLNTCVQHNKLYRGTLEQQQRSSATGGGARHVHFNVDGAVVASVAAAVTTSSSSTKASILLYAVLGIHVNSIDRVNMRLHDQWVKELEANVKHSDVVGVLTGLNLSREHGTHYAQERLFKECWRVAAEVRLPLVLHLGAADAASLTETVNRAAKLLDELLAATSATADGAGAAPSAVVLHNGLRALHASTAMQQLVRAHRPAAGRTAAAVPFYVLATADGLAVAKTEGSETEVTATTDSGPSVEALAALLPPRAGLGSNSDSATTTSSGGDAAVHLSQLLIGTGAPWGTPQNLPDPYLCTLPNEPGNYAYVVQTLYDAMRAPPPPPTAAAAAAELTLADLSAIAAVNYLLAFFHECVWEQEQQQQQQRSGSDDETTADALQQQQRRWVESQQPVVVAGLADSDVKRDLEALLAEAAKERERMEQERLREEAGLAQARSEELQQKRSRRERKKNVKANNRSNFTHFRNKDFAPRQSKQEKPAHLREVVGIREGGSTDVDGRERTPSSSSAASDSGSAGGPNSLAAQVERLLKANAAHRDPECRAQRQPAGRGKGRGQNALAGSRKVGRSADMKSSEQPQQQYGAGAGGKAENGSPSDGSDDDDERYTRTRAL
  soluble on expression in E. coli: not soluble

## MYTIAALYHFTRFADPADLKPALLDLCLAQGVKGTLLLAKEGINGTIAGPRAGIDAVLAHIRALPGCSDLEWKEATSDHPPFGKMKVRLKQEIVTMGQPDVDPRARVGHYVEPEDWNDLIRSDDVVLIDTRNDYEVAIGTFEGAIDPMTESFRDFPAWWEANKERFHNKRVAMFCTGGIRCEKSTNYLLGQGVEDVYHLKGGILRYLEEVPAENSTWQGECFVFDNRVSVGHGLVEGPHELCHGCRRPILPEDRNRPEYEHGVSCHLCIDETSEADKMRFRERQKQIALARARGEDHLATH
  soluble on expression in E. coli: not soluble

## MAFELSPSDLEPLLQGACFFGSGGGGTMISARHLAANFRKGDYYPTDKVRVVDVDEATDGDCVMVAYMGAPDAINQVQWPNGPVEAALAARQRLESQGRKLAYVVAPESGALGFVVASLVAAKLGLAVVDADGAGRAVPSLPMLTYAAAGVPPTPAFLAGESGLCVELGVRMPPPDGQRREDISTVVEQMLRPILTNPQFGQFGGLAMWMMSPAQLGGALPVRGTLSRALKLGRALQDGKVKTAEAMLDFLRRELDIKGKLLFGPATLASSEVSTAGGFDLGKVVLEDGERRCTVLYQNESLLAWDSALSHPLATAPDAISYFVEGEGQHVFSNGDLSGNDHGLDPSVRGRKAAVIALPAAAPLSEGLILQSFADELAQLGYLGPYAPVDAGREGARLEHHHHHH
  soluble on expression in E. coli: soluble

## MGSDKIHHHHHHMNINQLKTFIVLADCLSVTETSKRLFCTQPAVSIKIRKLEETLNTVLFERINNRLYLTEQGKIFYSYAEQIISTLEMSVEHLHQYDDPNYGKIIIGASHFVGVYLLPQVIAEYRKLSPNVELRLEILSSQQLIQGLENHSIDFIIMSDQIYFDPQKYDVNRFLSDELILIVPPDHVLATYESCHFEQLCDELFIIKPKNSQTRKFLLQQFSKDQISLLKFMEINSLEGIKRCVMNGLGVSIISRFSVENELKMGMLKAVELDSFQFKRGINYIYHKEKCLSSAIGRFIGLLNILK
  soluble on expression in E. coli: not soluble

## MKKVAIVGLGWLGMPLAMSLSARGWQVTGSKTTQDGVEAARMSGIDSYLLRMEPELVCDSDDLDALMDADALVITLPARRSGPGDEFYLQAVQELVDSALAHRIPRIIFTSSTSVYGDAQGTVKETTPRNPVTNSGRVLEELEDWLHNLPGTSVDILRLAGLVGPGRHPGRFFAGKTAPDGEHGVNLVHLEDVIGAITLLLQAPKGGHIYNICAPAHPARNVFYPQMARLLGLEPPQFRNSLDSGKGKIIDGSRICNELGFEYQYPDPLVMPLELEHHHHHH
  soluble on expression in E. coli: not soluble
